Paper PMC10786891, “Massively parallel profiling of RNA-targeting CRISPR-Cas13d”
Residue numbers refer to the chain shown, from its start. Names may count otherwise.

B1: target 1 G5U,G12A (mixed)
RNA 1: CACCCGUGCAAAAAUGCAGGGGUCUAAAACUGAGCGGAUAACCUCUCUAUGG
RNA 2: GGGAAUGGAUCCACAUCUACGAAUUCGUACCAUAGAGAGAUUAUCCUCUCACCGAGAUCGGAAGAGCACACGU
B2: target 1 insU 3' of 17,insA 3' of 6 (mixed)
RNA 1: B1 RNA 1
RNA 2: GGGAAUGGAUCCACAUCUACGAAUUCGUACCAUAGUAGAGGUUAUCCAGCUCACCGAGAUCGGAAGAGCACACGU
B3: target 1 C6U,C22G (mixed)
RNA 1: B1 RNA 1
RNA 2: B1 RNA 2 with C30G, A40G, C46U, U47G
B4: target 1 A1U,U3G (mixed)
RNA 1: B1 RNA 1
RNA 2: B1 RNA 2 with A40G, U47G, U49G, A51U
B5: target 1 insG 3' of 10,insC 3' of 1 (mixed)
RNA 1: B1 RNA 1
RNA 2: GGGAAUGGAUCCACAUCUACGAAUUCGUACCAUAGAGAGGUUGAUCCGCUCACCCGAGAUCGGAAGAGCACACGU
B6: target 1 del9,del18 (mixed)
RNA 1: B1 RNA 1
RNA 2: GGGAAUGGAUCCACAUCUACGAAUUCGUACCAUGAGAGGUUUCCGCUCACCGAGAUCGGAAGAGCACACGU
B7: target 1 insU 3' of 18,insC 3' of 3 (mixed)
RNA 1: B1 RNA 1
RNA 2: B2 RNA 2 with G35U, U36G, A48G, G49C, C50U, U51C
B8: target 1 insU 3' of 18,insC 3' of 9 (mixed)
RNA 1: B1 RNA 1
RNA 2: B2 RNA 2 with G35U, U36G, U45C, C46U, A48C
B9: target 1 U3A,A18U (mixed)
RNA 1: B1 RNA 1
RNA 2: B1 RNA 2 with A34U, A40G, U47G, U49A
B10: target 1 A1C,U3G (mixed)
RNA 1: B1 RNA 1
RNA 2: B1 RNA 2 with A40G, U47G, U49G, A51C
B11: target 1 insG 3' of 10,insA 3' of 2 (mixed)
RNA 1: B1 RNA 1
RNA 2: B5 RNA 2 with C53A
B12: target 1 U3G (mixed)
RNA 1: B1 RNA 1
RNA 2: B1 RNA 2 with A40G, U47G, U49G
B13: target 1 insA 3' of 11,insA 3' of 11 (mixed)
RNA 1: B1 RNA 1
RNA 2: GGGAAUGGAUCCACAUCUACGAAUUCGUACCAUAGAGAGGUAAUAUCCGCUCACCGAGAUCGGAAGAGCACACGU
B14: target 1 insG 3' of 8,insA 3' of 2 (mixed)
RNA 1: B1 RNA 1
RNA 2: B5 RNA 2 with G43A, A44U, U45G, C53A
B15: target 1 insG 3' of 18,insG 3' of 2 (mixed)
RNA 1: B1 RNA 1
RNA 2: B2 RNA 2 with U36G, A48G, G49C, C50U, U51C, C52G
B16: target 1 insU 3' of 17,insU 3' of 16 (mixed)
RNA 1: B1 RNA 1
RNA 2: B13 RNA 2 with A36U, G37A, A38U, G40A, U41G, A42G, A43U
B17: target 1 U11G,C22U (mixed)
RNA 1: B1 RNA 1
RNA 2: B1 RNA 2 with C30U, A40G, U41G, U47G
B18: target 1 A9G,G17U (mixed)
RNA 1: B1 RNA 1
RNA 2: B1 RNA 2 with G35U, A40G, A43G, U47G
B19: target 1 insG 3' of 14,insA 3' of 3 (mixed)
RNA 1: B1 RNA 1
RNA 2: B5 RNA 2 with U41G, G43U, C51A, A52C, C53A
B20: target 1 G12U,G15U (mixed)
RNA 1: B1 RNA 1
RNA 2: B1 RNA 2 with G37U, A40U, U47G
B21: target 1 A1G,A16G (mixed)
RNA 1: B1 RNA 1
RNA 2: B1 RNA 2 with A36G, A40G, U47G, A51G
B22: target 1 U19A,A20C (mixed)
RNA 1: B1 RNA 1
RNA 2: B1 RNA 2 with A32C, U33A, A40G, U47G
B23: target 1 insG 3' of 22,insC 3' of 19 (mixed)
RNA 1: B1 RNA 1
RNA 2: B13 RNA 2 with C31G, A32C, U33A, A34U, G35C, G40A, U41G, A42G, A43U
B24: target 1 insG 3' of 18,insU 3' of 13 (mixed)
RNA 1: B1 RNA 1
RNA 2: B13 RNA 2 with A36G, G37A, A38G, G39A, A42G, A43U
B25: target 1 U3A,C4U (mixed)
RNA 1: B1 RNA 1
RNA 2: B1 RNA 2 with A40G, U47G, C48U, U49A
B26: target 1 insU 3' of 17,insA 3' of 15 (mixed)
RNA 1: B1 RNA 1
RNA 2: B2 RNA 2 with G40A, U42G, A44U, U45A, C46U, A48C
B27: target 1 insG 3' of 21,insG 3' of 4 (mixed)
RNA 1: B1 RNA 1
RNA 2: B2 RNA 2 with A32G, U33A, A34U, G35A, U36G, A48G, G49C, C50G
B28: target 1 G15C,C21A (mixed)
RNA 1: B1 RNA 1
RNA 2: B1 RNA 2 with C31A, G37C, A40G, U47G
B29: target 1 insA 3' of 17,insU 3' of 7 (mixed)
RNA 1: B1 RNA 1
RNA 2: B2 RNA 2 with U36A, C47U, A48C
B30: target 1 A1G,U3G (mixed)
RNA 1: B1 RNA 1
RNA 2: B1 RNA 2 with A40G, U47G, U49G, A51G
B31: target 1 insG 3' of 18 (mixed)
RNA 1: B1 RNA 1
RNA 2: GGGAAUGGAUCCACAUCUACGAAUUCGUACCAUAGGAGAGGUUAUCCGCUCACCGAGAUCGGAAGAGCACACGU
B32: target 1 C6U,A18U (mixed)
RNA 1: B1 RNA 1
RNA 2: B1 RNA 2 with A34U, A40G, C46U, U47G
B33: target 1 insG 3' of 10,insG 3' of 1 (mixed)
RNA 1: B1 RNA 1
RNA 2: B5 RNA 2 with C53G
B34: target 1 insG 3' of 10,insC 3' of 10 (mixed)
RNA 1: B1 RNA 1
RNA 2: B13 RNA 2 with A42U, A43G, U44C

Target: T1, EsCas13d, nuclease-dead (Eubacterium siraeum, UniProt B0MS50, R295A;H300A;R849A;H854A)
T1 sequence: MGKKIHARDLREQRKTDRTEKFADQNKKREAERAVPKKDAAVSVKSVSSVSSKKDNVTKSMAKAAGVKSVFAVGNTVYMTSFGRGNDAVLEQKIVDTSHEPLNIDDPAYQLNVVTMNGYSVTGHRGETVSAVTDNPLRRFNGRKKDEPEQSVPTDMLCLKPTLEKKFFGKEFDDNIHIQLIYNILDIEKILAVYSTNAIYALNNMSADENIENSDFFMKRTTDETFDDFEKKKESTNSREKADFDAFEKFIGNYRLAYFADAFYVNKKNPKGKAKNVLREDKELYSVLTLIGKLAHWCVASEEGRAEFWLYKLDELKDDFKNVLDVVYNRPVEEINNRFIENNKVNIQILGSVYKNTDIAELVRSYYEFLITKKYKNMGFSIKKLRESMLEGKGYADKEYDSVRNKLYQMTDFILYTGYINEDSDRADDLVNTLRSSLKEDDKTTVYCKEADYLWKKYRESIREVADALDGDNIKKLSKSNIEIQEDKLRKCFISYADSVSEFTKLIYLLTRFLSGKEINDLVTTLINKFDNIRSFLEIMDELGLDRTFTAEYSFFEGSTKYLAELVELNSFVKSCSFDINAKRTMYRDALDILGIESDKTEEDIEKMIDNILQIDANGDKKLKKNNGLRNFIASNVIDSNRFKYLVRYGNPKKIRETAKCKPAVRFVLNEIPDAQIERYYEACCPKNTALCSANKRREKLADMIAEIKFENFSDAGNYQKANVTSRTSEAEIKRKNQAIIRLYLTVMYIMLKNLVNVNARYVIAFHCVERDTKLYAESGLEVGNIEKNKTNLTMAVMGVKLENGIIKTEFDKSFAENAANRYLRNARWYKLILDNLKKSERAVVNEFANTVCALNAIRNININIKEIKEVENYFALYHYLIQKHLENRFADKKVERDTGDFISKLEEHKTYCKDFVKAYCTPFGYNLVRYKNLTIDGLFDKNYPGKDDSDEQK
Test: crRNA (strand 1, pre-loaded); Mg2+; 40 mM Tris-HCl pH 7.5, 150 mM NaCl, 6 mM MgCl2, 1 mM DTT, 0.1% Tween-20, 0.2 mg/ml BSA; 25 C; 10 min per concentration, then washed
Conditions: tags: His6-TwinStrep-SUMO cleaved; N-terminal SNAP kept (SNAP-Surface 488); label: 3' end held by stalled T7 RNA polymerase

Row | Binder | Kd [nM]
1 | B1 | 42 ± 5
2 | B2 | 45 ± 10
3 | B3 | 39 ± 8
4 | B4 | 8.1 ± 0.4
5 | B5 | 26.8 ± 2.5
6 | B6 | 100 ± 50
7 | B7 | 28 ± 4
8 | B8 | 50 ± 5
9 | B9 | 33 ± 5
10 | B10 | 46 ± 7
11 | B11 | 22.2 ± 1.4
12 | B12 | 11.3 ± 1.3
13 | B13 | 8.6 ± 0.5
14 | B14 | 13.2 ± 0.9
15 | B15 | ~70
16 | B16 | 41 ± 7
17 | B17 | 42 ± 7

Row | Binder | Kd [nM]
18 | B18 | 35 ± 6
19 | B19 | 11.4 ± 0.8
20 | B20 | 23.3 ± 1.8
21 | B21 | 32.2 ± 3
22 | B22 | 45 ± 6
23 | B23 | 52 ± 8
24 | B24 | 71 ± 17
25 | B25 | 37 ± 5
26 | B26 | 15.3 ± 2
27 | B27 | 51 ± 11
28 | B28 | ~50
29 | B29 | 20.6 ± 1.6
30 | B30 | 3.35 ± 0.12
31 | B31 | 48 ± 5
32 | B32 | 25.8 ± 2
33 | B33 | 22.5 ± 2
34 | B34 | 23.5 ± 1.7
